Source: paper PMC10367348 (Journal of Biomedical Science, 2023)
Changes are numbered by the printed parent chain. Ends that are not written are not given here.

T1: biotinylated BSA conjugated peptide (influenza A virus, also: biotinylated, BSA conjugated)
T1 peptide: KSLLTEVETPI

B1: scFv JU1 (scFv, V domains shown)
VH: EVQLLESGGGLVQPGGSLRLSCAASGFTFSSYAMSWVRQAPGKGLEWVSRISAQGNQTRYSDSVKGRFTISRDNSKNTLYLQMNSLRAEDTAVYYCAKKSSYFDYWGQGTLVTVSS
VL: DIQMTQSPSSLSASVGDRVTITCRASQSISSYLNWYQQKPGKAPKLLIYKASTLQSGVPSRFSGSGSGTDFTLTISSLQPEDFATYYCQQWRTRPLTFGQGTKVEIK
B2: scFv AU1 (scFv, V domains shown)
VH: EVQLLESGGGLVQPGGSLRLSCAASGFTFSSYAMSWVRQAPGKGLEWVSTILQHGQRTLYADSVKGRFTISRDNSKNTLYLQMNSLRAEDTAVYYCAKNRAVFDYWGQGTLVTVSS
VL: B1 VL with K50T, W91Y, T93Q, L96P
notes: also called AU1 scFv
B3: scFv UU1 (scFv, V domains shown)
VH: B2 VH with L52S, Q53M, H54S, Q56K, L59Q, N99R, R100H, A101R, V102Y
VL: B1 VL with K50R, T53K, W91P, R92G, T93W, L96K
B4: scFv GU1 (scFv, V domains shown)
VH: B2 VH with T50G, L52S, H54L, Q56G, R57Y, L59G, D62G, V102T
VL: B1 VL with K50A, T53H, W91S, R92Q, T93H, R94K

Experiments:
[1] = biological target: T1, biotinylated BSA conjugated peptide; assay: BLI
[2] = biological target: T2, matrix protein 2 [Influenza A virus (A/New York/392/2004(H3N2))] (Influenza A virus (A/New …, UniProt P0DOF5, strain)); assay: flow cytometry on cells; conditions: one partner purified
T2 construct: also called M2; M2 protein

Binder	Kd [1] [µM]	binding result [2]
B1	3.61	binds
B2	0.94	binds
B3	8.6	binds
B4	0.35	binds
